From patent US7244836 (Genentech, dated 2007) come the findings set out here.

For one assay, the target named is T1, GST-TRAF2 fusion protein (murine, UniProt P39429 1-501).
T1 construct: Expressed in E. coli in the presence of 1 mM ZnCl2; also called GST-TRAF2 fusion protein beads; not shown: glutathione S-transferase as encoded by vector pGEX-2TK, with the vector's linker
T1 sequence: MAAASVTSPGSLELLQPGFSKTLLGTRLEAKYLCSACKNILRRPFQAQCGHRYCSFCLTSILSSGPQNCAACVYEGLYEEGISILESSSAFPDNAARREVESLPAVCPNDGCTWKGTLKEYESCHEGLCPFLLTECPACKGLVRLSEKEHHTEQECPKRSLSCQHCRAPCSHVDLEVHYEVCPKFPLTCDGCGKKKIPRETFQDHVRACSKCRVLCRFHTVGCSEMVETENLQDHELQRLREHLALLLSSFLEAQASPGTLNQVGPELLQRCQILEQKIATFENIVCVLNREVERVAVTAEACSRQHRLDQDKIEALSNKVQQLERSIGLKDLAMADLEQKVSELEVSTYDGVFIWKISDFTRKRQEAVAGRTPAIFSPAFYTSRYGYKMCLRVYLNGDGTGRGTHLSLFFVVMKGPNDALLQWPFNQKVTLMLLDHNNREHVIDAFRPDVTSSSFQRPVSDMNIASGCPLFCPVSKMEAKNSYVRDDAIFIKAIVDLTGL
In words: GST-TRAF2 beads incubated with 293/TNF-R2 cell lysate; SDS-PAGE and Western blot with anti-hTNF-R2 antibody. How it is done: FIG. 16. […] Reactions were analyzed by SDS-PAGE and Western blot analysis using anti-human TNF-R1 monoclonal antibody 986 (0.5 μg/ml) and anti-human TNF-R2 monoclonal antibody 1036 (0.5 μg/ml). An arrow indicates the 75-80 kd hTNF-R2 band that is coprecipitated specifically with the GST-TRAF2 fusion protein. Molecular weight markers are indicated on the right in kd.
An expression vector encoding a GST-TRAF2 fusion protein was constructed. The TRAF2 coding region was amplified from pPC86TRAF2 by PCR with Pfu DNA polymerase as described above using the oligonucleotide primers 5'-[…] TTGT-3' (SEQ. ID. NO: 53) and 5'-[…]-3' (SEQ. ID. NO: 54). The amplified 1.6 kb DNA fragment was blunt-ended using *E. coli* DNA polymerase I, digested with BamHI and cloned into BamHI/SmaI-digested pGEX-2TK vector. The GST-TRAF2 fusion protein was expressed in the presence of 1 mM ZnCL_2 and purified as described above. […] Primary antibodies directed against the extracellular domains of hTNF-R2 and hTNF-R1 (as a control) were used at a concentration of 0.5 µg/ml and the secondary sheep anti-mouse horseradish peroxidase conjugate (Amersham) at a dilution of 1:6000.
(Immunoblotting shows a protein as a band on a membrane.)

Assay [1] addresses T2, GAL4(TA)-TRAF1 co-expressed with directly expressed TRAF2 (yeast; murine, UniProt P39428 2-409; P39429 1-501, limits assumed).
T2 construct: also called GAL4(TA)-TRAF1 + TRAF2; pPC86TRAF1 with pPCTRAF2
T2 sequence 1: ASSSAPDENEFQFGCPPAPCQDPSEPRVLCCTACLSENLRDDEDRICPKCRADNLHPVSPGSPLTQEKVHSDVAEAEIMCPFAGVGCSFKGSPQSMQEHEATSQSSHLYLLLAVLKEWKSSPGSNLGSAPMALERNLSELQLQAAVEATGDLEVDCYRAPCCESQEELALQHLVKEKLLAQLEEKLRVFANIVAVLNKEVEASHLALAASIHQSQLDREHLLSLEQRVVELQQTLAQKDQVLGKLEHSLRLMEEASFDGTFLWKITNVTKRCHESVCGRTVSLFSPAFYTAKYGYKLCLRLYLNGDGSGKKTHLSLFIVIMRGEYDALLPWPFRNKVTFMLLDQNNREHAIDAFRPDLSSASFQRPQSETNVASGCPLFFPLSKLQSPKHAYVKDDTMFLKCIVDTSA
T2 sequence 2: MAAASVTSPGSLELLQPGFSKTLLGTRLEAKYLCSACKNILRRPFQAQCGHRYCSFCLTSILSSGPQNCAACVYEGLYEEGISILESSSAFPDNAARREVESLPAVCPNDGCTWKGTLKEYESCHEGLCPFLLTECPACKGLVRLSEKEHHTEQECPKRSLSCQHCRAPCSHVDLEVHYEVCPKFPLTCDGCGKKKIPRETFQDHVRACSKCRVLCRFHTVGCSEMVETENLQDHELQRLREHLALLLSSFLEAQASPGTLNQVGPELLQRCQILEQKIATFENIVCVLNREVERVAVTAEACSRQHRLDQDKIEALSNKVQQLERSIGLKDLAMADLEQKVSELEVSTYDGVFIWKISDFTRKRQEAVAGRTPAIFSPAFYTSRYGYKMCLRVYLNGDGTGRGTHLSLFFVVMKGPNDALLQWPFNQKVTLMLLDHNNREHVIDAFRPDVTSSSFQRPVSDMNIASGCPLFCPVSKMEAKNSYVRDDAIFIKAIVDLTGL
The assay can be described thus: yeast three-component assay with TRAF2 (no NLS) expressed directly; growth on trp- leu- his- medium with 20 mM 3-aminotriazole. The method, then: HF7c cells were sequentially transformed with plasmids (see text) encoding the indicated GAL4 DNA-binding domain (DB) fusion proteins, the GAL4 transcriptional activation domain (TA) TRAF1 fusion protein, and TRAF2 or TRAF2 fused to the simian virus 40 large tumor antigen nuclear localization signal (NLS). The final transformation mixtures were plated onto synthetic dextrose plates lacking trp, leu, his and containing 20 mM 3-aminotriazole. Plus signs indicate growth of transformed yeast colonies on the respective plates. *See Table 2.

Assay [2] has as its target T3, TNF Receptor Associated Factor 1, purified from CT6 cells (murine, UniProt P39428 1-409, N-terminally blocked (so in the source); nature of the block not stated)).
T3 construct: also called TRAF1; protein band at 45-50 kd
T3 sequence: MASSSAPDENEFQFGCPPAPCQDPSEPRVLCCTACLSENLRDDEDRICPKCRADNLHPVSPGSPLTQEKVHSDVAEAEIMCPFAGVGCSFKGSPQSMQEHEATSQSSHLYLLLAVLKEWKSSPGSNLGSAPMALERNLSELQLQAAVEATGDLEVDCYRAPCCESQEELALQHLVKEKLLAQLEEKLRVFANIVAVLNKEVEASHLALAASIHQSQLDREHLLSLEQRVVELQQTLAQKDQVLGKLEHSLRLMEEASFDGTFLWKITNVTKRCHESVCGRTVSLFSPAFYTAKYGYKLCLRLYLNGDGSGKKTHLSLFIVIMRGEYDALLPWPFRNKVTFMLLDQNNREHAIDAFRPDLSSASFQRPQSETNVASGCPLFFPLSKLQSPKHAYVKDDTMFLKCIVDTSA
In words: band eluted specifically from the GST-hTNF-R2icd affinity column and identified by peptide sequencing; association may be indirect (through TRAF2). How it is done:
For large scale purification of hTNF-R2icd associated factors 60 l of CT6 cells (3×10^10 cells) were harvested and washed twice with cold PBS. All subsequent operations were carried out at 4° C. The cells were lysed by adding 120 ml of 0.1% NP40 lysis buffer containing 100 mM NaCl and rocked gently for 30 min. Insoluble material was removed by centrifugation for 10 min at 10,000×g. The supernatant was then centrifuged at 100,000×g for 1 hr and dialyzed against lysis buffer containing 500 mM NaCl. All subsequent purification steps were carried out in lysis buffer containing 500 mM NaCl. The cell lysate was passed through a 15 ml glutathione-agarose GST-hTNF-R2icd(-37) fusion protein preabsorption column. The flow-through was applied to a 0.3 ml Affigel10/15 GST-hTNF-R2icd fusion protein affinity column. For control, the lysate was run through a similar Affigel10/15 GST-hTNF-R2icd(-37) fusion protein affinity column in parallel. After extensive washing, proteins bound to the resins were eluted with five column volumes of ImmunoPure Gentle Ag1Ab Elution Buffer (Pierce) containing, 0.1 M DTT, precipitated with Methanol/Chloroform and resuspended in SDS sample buffer containing 5% SDS. One tenth of the material was separated by SDS-PAGE under reducing conditions and visualized by silver staining (FIG. 9).

B1: human type 2 TNF receptor, wild type full length (receptor, UniProt P20333 23-461, looked up)
chain: LPAQVAFTPYAPEPGSTCRLREYYDQTAQMCCSKCSPGQHAKVFCTKTSDTVCDSCEDSTYTQLWNWVPECLSCGSRCSSDQVETQACTREQNRICTCRPGWYCALSKQEGCRLCAPLRKCRPGFGVARPGTETSDVVCKPCAPGTFSNTTSSTDICRPHQICNVVAIPGNASMDAVCTSTSPTRSMAPGAVHLPQPVSTRSQHTQPTPEPSTAPSTSFLLPMGPSPPAEGSTGDFALPVGLIVGVTALGLLIIGVVNCVIMTQVKKKPLCLQREAKVPHLPADKARGTQGPEQQHLLITAPSSSSSSLESSASALDRRAPTRNQPQAPGVEASGAGEARASTGSSDSSPGGHGTQVNVTCIVNVCSSSDHSSQCSSQASSTMGDTDSSPSESPKDEQVPFSKEECAFRSQLETPETLLGSTEEKPLPLGVPDAGMKPS
notes: whole, on cells; Whole receptor made by transfected cells, assayed after detergent lysis, not on intact cells; also called hTNF-R2; 75-80 kd hTNF-R2
As to B1, in the assay with GST-TRAF2 fusion protein, the binding result is listed as “binds”.

B2: GAL4 DNA-binding domain fused to the intracellular domain of human TNF-R2 (other, yeast;human, UniProt P04386 1-147, looked up)
chain: MKLLSSIEQACDICRLKKLKCSKEKPKCAKCLKNNWECRYSPKTKRSPLTRAHLTEVESRLERLEQLFLLIFPREDLDMILKMDSLQDIKALLTGLFVQDNVNKDAVTDRLASVETDMPLTLRQHRISATSSSEESSNKGQRQLTVSKKKPLCLQREAKVPHLPADKARGTQGPEQQHLLITAPSSSSSSLESSASALDRRAPTRNQPQAPGVEASGAGEARASTGSSDSSPGGHGTQVNVTCIVNVCSSSDHSSQCSSQASSTMGDTDSSPSESPKDEQVPFSKEECAFRSQLETPETLLGSTEEKPLPLGVPDAGMKPS
notes: also called GAL4(DB)-hTNF-R2icd; pPC97-hTNF-R2icd
For the molecule B2, the binding result in assay [1] is listed as “binds”.

B3: GAL4 DNA-binding domain fused to the intracellular domain of the murine TNF-R2 (other, yeast;murine, UniProt P04386 1-147, looked up)
chain: MKLLSSIEQACDICRLKKLKCSKEKPKCAKCLKNNWECRYSPKTKRSPLTRAHLTEVESRLERLEQLFLLIFPREDLDMILKMDSLQDIKALLTGLFVQDNVNKDAVTDRLASVETDMPLTLRQHRISATSSSEESSNKGQRQLTVSKKKPSCLQRDAKVPHVPDEKSQDAVGLEQQHLLTTAPSSSSSSLESSASAGDRRAPPGGHPQARVMAEAQGFQEARASSRISDSSHGSHGTHVNVTCIVNVCSSSDHSSQCSSQASATVGDPDAKPSASPKDEQVPFSQEECPSQSPCETTETLQSHEKPLPLGVPDMGMKPSQAGWFDQIAVKVA
notes: also called GAL4(DB)-mTNF-R2icd; pPC97-mTNF-R2icd
On to B3, for which, in assay [1], the binding result is reported as “binds”.

B4: GST-hTNF-R2icd fusion protein (other, human, UniProt P20333 288-461, looked up)
chain: KKKPLCLQREAKVPHLPADKARGTQGPEQQHLLITAPSSSSSSLESSASALDRRAPTRNQPQAPGVEASGAGEARASTGSSDSSPGGHGTQVNVTCIVNVCSSSDHSSQCSSQASSTMGDTDSSPSESPKDEQVPFSKEECAFRSQLETPETLLGSTEEKPLPLGVPDAGMKPS
notes: domain: intracellular domain; Expressed in E. coli; also called pGST-hTNF-R2icd; wild type (wt) GST-hTNF-R2icd; not shown: glutathione S-transferase as encoded by vector pGEX-2TK (Pharmacia), with the vector's linker up to the BamHI site
Consider B4, for which, in assay [2], the binding result is “binds”.
